The target in assay [1] is T1, SHP-1 C453S catalytic domain (residues 243–530) (human, UniProt P29350 243-530, C453S). The assay can be described thus: ITC. In general terms: In ITC the heat of successive injections is recorded.
The target of assay [2] is T1, SHP-1 C453S catalytic domain (residues …). The assay can be described thus: ITC. This is another data set of the same source.

Read-outs that look alike come from different tables or passages of the source. Square brackets hold non-standard residues; d marks the D form. Ends that are not written are not given here. pY = N[C@@H](Cc1ccc(OP(=O)(O)O)cc1)C(=O)O

T1 sequence (P29350 243-530 C453S): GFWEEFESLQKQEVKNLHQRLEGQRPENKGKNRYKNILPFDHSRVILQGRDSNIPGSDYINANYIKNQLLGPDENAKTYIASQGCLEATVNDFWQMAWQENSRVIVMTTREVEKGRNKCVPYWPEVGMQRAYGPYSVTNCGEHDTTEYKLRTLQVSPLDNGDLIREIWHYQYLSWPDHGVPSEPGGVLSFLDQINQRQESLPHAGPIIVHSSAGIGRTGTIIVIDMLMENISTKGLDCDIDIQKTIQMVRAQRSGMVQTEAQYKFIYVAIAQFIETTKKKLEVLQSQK

ETDKE[pY]YTVKD [JAK1 activation loop phosphopeptide E1029TDKEpYYTVKD]: the dissociation constant (Kd) (as a rule, the concentration at which binding is half-saturated) in assay [1] stood at 13.4 µM. Besides, in assay [2], the Kd is 13.7 ± 1.4 µM; the dH is -28.7 ± 7.3 kcal/mol; the stoichiometry N (as a rule, the number of molecules, sites or subunits per partner or assembly) amounted to 0.7.
Take ETDKEY[pY]TVKD [JAK1 activation loop phosphopeptide E1029TDKEYpYTVKD]: in assay [2], the Kd amounted to 5.6 ± 1.1 µM, the dH is -21.5 ± 3.5 kcal/mol and the “stoichiometry N” value was found to be 0.9.

These data come from article PMC3578099 (Journal of structural biology, 2013).
